Data set [1] concerns the molecule itself. Put plainly: SEC; Superose 12 10/300, 20 mM HEPES, 100 mM NaCl, pH 7.6, 7°C, 0.5 mL/min; self-association of the purified variant. For orientation: SEC sorts molecules by how far they enter the pores of the column.
Data set [2] concerns the molecule itself. Put plainly: cross-linking; BS3 (285 μM), 5.7 μM protein incubated 2 h with DOPG liposomes of increasing concentrations, 25°C, SDS-PAGE; self-association.

B1: IM30 wt (inner membrane-associated protein of 30 kDa) (natural protein, Synechocystis, UniProt Q55707 1-267, looked up)
chain: MGLFDRLGRVVRANLNDLVSKAEDPEKVLEQAVIDMQEDLVQLRQAVARTIAEEKRTEQRLNQDTQEAKKWEDRAKLALTNGEENLAREALARKKSLTDTAAAYQTQLAQQRTMSENLRRNLAALEAKISEAKTKKNMLQARAKAAKANAELQQTLGGLGTSSATSAFERMENKVLDMEATSQAAGELAGFGIENQFAQLEASSGVEDELAALKASMAGGALPGTSAATPQLEAAPVDSSVPANNASQDDAVIDQELDDLRRRLNNL
notes: IM30 (Vipp1) of Synechocystis, full-length wild type; calculated MW 31.7 kDa with tag; Forms homo-oligomeric barrels and rods of several MDa; the number of subunits was not measured here; also called wt IM30; Vipp1
Take B1: in data set [1], the binding result was “binds”.

B2: IM30 α1-3 (domain or fragment, Synechocystis, UniProt Q55707 26-156, looked up)
chain: EKVLEQAVIDMQEDLVQLRQAVARTIAEEKRTEQRLNQDTQEAKKWEDRAKLALTNGEENLAREALARKKSLTDTAAAYQTQLAQQRTMSENLRRNLAALEAKISEAKTKKNMLQARAKAAKANAELQQTL
notes: IM30 (Vipp1) of Synechocystis, helical hairpin α1-3, residues 26-156 (printed for the α1-3 fragment in the simulation); calculated mass about 17.5 kDa; also called IM30 αH1-3; α1-3 helical hairpin; not shown: His10, N-terminal, kept
Consider B2, for which the binding result in data set [2] is reported as “binds”.

The record behind these values is paper PMC12636044, “Membrane binding of a cyanobacterial ESCRT‐III protein crucially involves the helix α1‐3 hairpin conserved in all superfamily members” (Protein Science : A Publication of the Protein Society, 2025).
